Laboratory results: EP3766512A1 (Universität Zürich, dated 2021)

Tests used:
Assay in all cases: Protein G affinity chromatography bead
human IL-12Fc NAA = target: T1, human IL-12Fc NAA (human, UniProt P29460 23-328; P29459 23-219)
T1 construct: not shown: linker between p40 and p35 of single chain IL-12 not described; junction or linker between IL-12 and Fc not described

human IL-12Fc NAE = target: T2, human IL-12Fc NAE (human, UniProt P29460 23-328; P29459 23-219)
T2 construct: not shown: linker between p40 and p35 of single chain IL-12 not described; junction or linker between IL-12 and Fc not described
T2 sequence (P29460 other isoform, or with tags, fused parts or gaps): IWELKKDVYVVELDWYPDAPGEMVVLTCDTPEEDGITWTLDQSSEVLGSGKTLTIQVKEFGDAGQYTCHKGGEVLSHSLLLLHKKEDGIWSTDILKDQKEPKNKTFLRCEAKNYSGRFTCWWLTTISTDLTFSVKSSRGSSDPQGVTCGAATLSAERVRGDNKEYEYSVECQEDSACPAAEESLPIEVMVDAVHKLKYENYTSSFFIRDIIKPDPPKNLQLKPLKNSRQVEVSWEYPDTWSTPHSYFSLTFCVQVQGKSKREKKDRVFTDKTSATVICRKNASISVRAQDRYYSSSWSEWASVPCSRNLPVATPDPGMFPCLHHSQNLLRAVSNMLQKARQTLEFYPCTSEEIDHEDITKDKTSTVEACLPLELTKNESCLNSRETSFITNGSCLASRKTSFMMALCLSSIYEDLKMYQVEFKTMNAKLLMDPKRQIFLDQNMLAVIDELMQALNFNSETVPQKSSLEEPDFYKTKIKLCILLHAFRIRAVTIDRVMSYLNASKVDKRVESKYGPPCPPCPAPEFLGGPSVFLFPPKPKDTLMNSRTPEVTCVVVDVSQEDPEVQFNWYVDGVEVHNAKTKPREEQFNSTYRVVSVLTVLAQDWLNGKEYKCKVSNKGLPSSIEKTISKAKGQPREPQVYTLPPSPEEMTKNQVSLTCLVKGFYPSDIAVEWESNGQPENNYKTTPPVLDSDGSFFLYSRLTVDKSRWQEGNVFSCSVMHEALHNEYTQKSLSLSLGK

human IL-12Fc NAH = target: T3, human IL-12Fc NAH (human, UniProt P29460 23-328; P29459 23-219)
T3 construct: not shown: linker between p40 and p35 of single chain IL-12 not described; junction or linker between IL-12 and Fc not described
T3 sequence (P29460 other isoform, or with tags, fused parts or gaps): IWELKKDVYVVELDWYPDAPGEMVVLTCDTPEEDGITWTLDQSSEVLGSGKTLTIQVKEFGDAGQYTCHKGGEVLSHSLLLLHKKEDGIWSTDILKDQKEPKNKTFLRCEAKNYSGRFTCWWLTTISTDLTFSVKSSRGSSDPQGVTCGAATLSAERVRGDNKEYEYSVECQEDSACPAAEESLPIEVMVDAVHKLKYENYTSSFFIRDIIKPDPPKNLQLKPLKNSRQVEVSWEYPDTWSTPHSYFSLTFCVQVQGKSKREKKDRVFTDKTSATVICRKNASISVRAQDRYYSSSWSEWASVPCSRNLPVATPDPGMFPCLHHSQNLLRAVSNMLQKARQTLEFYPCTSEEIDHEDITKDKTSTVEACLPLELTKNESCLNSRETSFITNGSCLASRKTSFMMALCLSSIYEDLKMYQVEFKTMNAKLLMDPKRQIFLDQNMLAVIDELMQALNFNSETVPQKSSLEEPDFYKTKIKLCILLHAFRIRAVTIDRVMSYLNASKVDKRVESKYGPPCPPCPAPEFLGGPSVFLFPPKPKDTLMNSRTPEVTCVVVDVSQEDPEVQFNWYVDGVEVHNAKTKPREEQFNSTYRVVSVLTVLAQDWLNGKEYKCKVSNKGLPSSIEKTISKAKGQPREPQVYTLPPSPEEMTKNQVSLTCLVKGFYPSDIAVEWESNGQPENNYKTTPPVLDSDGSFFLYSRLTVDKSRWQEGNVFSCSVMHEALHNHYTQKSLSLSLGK

Measured: binding result

T1 sequence (P29460 other isoform, or with tags, fused parts or gaps): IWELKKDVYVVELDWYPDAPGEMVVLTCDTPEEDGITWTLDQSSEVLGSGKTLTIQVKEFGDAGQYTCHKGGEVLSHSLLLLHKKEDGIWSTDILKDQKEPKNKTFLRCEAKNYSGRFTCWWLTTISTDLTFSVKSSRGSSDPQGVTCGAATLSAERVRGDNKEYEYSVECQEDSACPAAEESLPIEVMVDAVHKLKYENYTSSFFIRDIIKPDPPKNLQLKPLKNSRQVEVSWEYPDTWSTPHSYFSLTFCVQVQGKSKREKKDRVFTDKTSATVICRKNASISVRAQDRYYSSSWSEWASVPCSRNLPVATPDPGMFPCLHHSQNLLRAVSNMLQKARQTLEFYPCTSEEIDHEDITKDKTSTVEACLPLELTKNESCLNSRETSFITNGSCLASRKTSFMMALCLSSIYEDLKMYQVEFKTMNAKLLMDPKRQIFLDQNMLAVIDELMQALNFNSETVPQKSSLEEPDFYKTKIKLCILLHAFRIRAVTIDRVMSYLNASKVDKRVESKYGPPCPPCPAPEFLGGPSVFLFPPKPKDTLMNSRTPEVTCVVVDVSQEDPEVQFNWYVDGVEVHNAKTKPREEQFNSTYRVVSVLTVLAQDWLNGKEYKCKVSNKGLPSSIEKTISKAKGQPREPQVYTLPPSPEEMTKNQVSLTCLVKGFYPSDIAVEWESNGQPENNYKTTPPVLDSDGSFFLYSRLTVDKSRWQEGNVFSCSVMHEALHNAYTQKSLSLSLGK

B1: Protein G (chromatography bead) (other, UniProt P19909 303-497, looked up)
chain: TYKLILNGKTLKGETTTEAVDAATAEKVFKQYANDNGVDGEWTYDDATKTFTVTEKPEVIDASELTPAVTTYKLVINGKTLKGETTTEAVDAATAEKVFKQYANDNGVDGEWTYDDATKTFTVTEKPEVIDASELTPAVTTYKLVINGKTLKGETTTKAVDAETAEKAFKQYANDNGVDGVWTYDDATKTFTVTE
no binding: all assays above
